Experimental data: patent US20260373285 (published 2026)
Where a chain is given by its changes, count along the chain named. Read-outs that look alike come from different tables or passages of the source. Each block holds one binder with its values, some of them ahead of it.

Columns and labels:
human Trop-2 (His) [1] = target: T1, human Trop-2 (His) (human, UniProt P09758); assay: SPR
T1 chain: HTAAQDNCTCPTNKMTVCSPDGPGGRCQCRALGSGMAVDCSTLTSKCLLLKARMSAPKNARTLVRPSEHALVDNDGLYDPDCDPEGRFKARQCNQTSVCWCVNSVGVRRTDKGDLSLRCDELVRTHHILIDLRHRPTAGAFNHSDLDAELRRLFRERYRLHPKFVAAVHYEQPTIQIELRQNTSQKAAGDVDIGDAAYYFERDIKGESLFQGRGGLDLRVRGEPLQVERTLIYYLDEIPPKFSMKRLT

human Trop-2 (His) [2] = target: T1, human Trop-2 (His); assay: SPR
human Trop-2 (His) [3] = target: T1, human Trop-2 (His); assay: ELISA
[4] = target: T2, human Trop-2 on MDA-MB-468 cells (human, UniProt P09758); assay: FACS
T2 chain: T1 chain

human Trop-2 (His) [5] = target: T1, human Trop-2 (His); assay: SPR
human Trop-2 (His) [6] = target: T1, human Trop-2 (His); assay: SPR
[7] = target: T3, human PD-L1 full length (on CHO cells) (human, UniProt Q9NZQ7); assay: competition FACS vs PD-1
[8] = target: T3, human PD-L1 full length (on CHO cells); assay: FACS
cPD-L1(ECD)-His = cPD-L1(ECD)-His (cynomolgus); assay: ELISA
[9] = target: T3, human PD-L1 full length (on CHO cells); assay: competition FACS vs CD80
hPD-L1(ECD)-His [10] = target: T4, hPD-L1(ECD)-His (human, UniProt Q9NZQ7); assay: ELISA
hPD-L1(ECD)-His [11] = target: T4, hPD-L1(ECD)-His; assay: SPR
hPD-L1(ECD)-His [12] = target: T4, hPD-L1(ECD)-His; assay: SPR; remark: listed apart in the source
hPD-L1(ECD)-His [13] = target: T4, hPD-L1(ECD)-His; assay: SPR supernatant
hPD-L1(ECD)-His [14] = target: T4, hPD-L1(ECD)-His; assay: SPR; remark: listed apart in the source
hPD-L1(ECD)-His [15] = target: T4, hPD-L1(ECD)-His; assay: SPR; remark: listed apart in the source

T4 sequence (Q9NZQ7 19-238): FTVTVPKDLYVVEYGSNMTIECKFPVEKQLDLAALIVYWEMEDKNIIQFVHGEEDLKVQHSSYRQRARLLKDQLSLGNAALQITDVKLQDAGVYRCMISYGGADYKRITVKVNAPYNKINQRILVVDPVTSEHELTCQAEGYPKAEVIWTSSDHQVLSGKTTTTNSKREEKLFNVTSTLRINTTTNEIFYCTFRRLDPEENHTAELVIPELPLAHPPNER
T3 sequence (Q9NZQ7 19-238): as above
Chain of cPD-L1(ECD)-His (cynomolgus) (chain, as listed by the source): as the sequence (Q9NZQ7 19-238) above, with A33T, A34S, S62N, R68Q, Q82R, F173L, T185A, T192I, H215L counted along it

B1: Datopotamab (ALGA106B) (antibody, V domains shown)
VH: QVQLVQSGAEVKKPGASVKVSCKASGYTFTTAGMQWVRQAPGQGLEWMGWINTHSGVPKYAEDFKGRVTISADTSTSTAYLQLSSLKSEDTAVYYCARSGFGSSYWYFDVWGQGTLVTVSS
VL: DIQMTQSPSSLSASVGDRVTITCKASQDVSTAVAWYQQKPGKAPKLLIYSASYRYTGVPSRFSGSGSGTDFTLTISSLQPEDFAVYYCQQHYITPLTFGQGTKLEIKR
- Kd (human Trop-2 (His) [1]): 28.3 nM
- Kd (human Trop-2 (His) [2]): 23.5 nM
- EC50 (human Trop-2 (His) [3]): 0.0507 µg/mL
- EC50 [4]: 0.827 µg/mL
- Kd (human Trop-2 (His) [5]): 22.5 nM
- Kd (human Trop-2 (His) [6]): 15.4 nM

B2: Trop-2-A-258 (antibody, V domains shown)
VH: QVQLVESGGGLVQAGGSLRLSCAASDRTFSEYNADWFRQAPGKEREFVAAITWSGKNTRYADSVKGRFTVSRDNAKNTVYLQMNSLKPEDTAVYYCATDRWWAAGNWDGVDYWGKGTLVTVSS
- Kd (human Trop-2 (His) [1]): 64.6 nM
- Kd (human Trop-2 (His) [2]): 59.2 nM
- EC50 (human Trop-2 (His) [3]): 0.00557 µg/mL
- EC50 [4]: 0.34 µg/mL

B5: ALGA105S PD-L1 arm (antibody, V domains shown)
VH: EVQLVQSGAEVKKPGATVKISCKVSGFNIEDTYIYWVQQAPGKGLEWMGWIDPANYNTKYDPRFQDRVTITVDTSTDTAYMELSSLRSEDTAVYYCARGLRLLMDYWGQGTTVTVSS
VL: DIQLTQSPSFLSASVGDRVTITCKASQNVHTSLAWYQQKPGKSPKLLIYLASNRHTGVPSRFSGSGSGTEFTLTISSLQPEDFATYYCLQHWNYPLTFGQGTKLEIKR
- Kd (hPD-L1(ECD)-His [14]): 0.824 nM
- Kd (hPD-L1(ECD)-His [15]): 0.824 nM

B7: ALGA105X PD-L1 arm (antibody, V domains shown)
VH: B5 VH
VL: B5 VL
- Kd (hPD-L1(ECD)-His [14]): 0.822 nM
- Kd (hPD-L1(ECD)-His [15]): 0.822 nM

Results, then the binder that gave them:

- IC50 [7]: 3 nM
- EC50 [8]: 1.02 nM
- EC50 (cPD-L1(ECD)-His): 0.38 nM
- IC50 [9]: 2.07 nM
- EC50 (hPD-L1(ECD)-His [10]): 0.028 nM
- Kd (hPD-L1(ECD)-His [11]): 0.295 nM
B3: PD-L1-1.168.15 (antibody, V domains shown)
VH: EVQLQQSGAELVKPGASVKLSCTVSGFNIEDTYIYWVKQRPEQGLEWIGWIDPANYNTKYDPRFQDKATVTVDTSSNTAYMHLSSLTSEDTAVYYCARGLRLLMDYWGQGTSVTVSS
VL: DIVMTQSQKFMSSSVGDRVSITCKASQNVHTSLAWYQQRPGQSPKALIYLASNRHTGVPDRFTGSGSGTDFTLTISNVQSEDLADYFCLQHWNYPLTFGAGTKLELRR

- Kd (hPD-L1(ECD)-His [12]): 0.275 nM
- Kd (hPD-L1(ECD)-His [13]): 0.379 nM
B4: PD-L1-1.168.15-xIgG1K (antibody, V domains shown)
VH: B3 VH
VL: B3 VL

- Kd (hPD-L1(ECD)-His [12]): 0.876 nM
- Kd (hPD-L1(ECD)-His [13]): 0.837 nM
B6: PD-L1-1.168.15-z3-uIgG1K (antibody, V domains shown)
VH: B5 VH
VL: B5 VL with S43A

- Kd (hPD-L1(ECD)-His [12]): 0.613 nM
- Kd (hPD-L1(ECD)-His [14]): 0.647 nM
- Kd (hPD-L1(ECD)-His [13]): 0.775 nM
B8: PD-L1-1.168.15-z4-uIgG1K (antibody, V domains shown)
VH: B5 VH
VL: B5 VL

- Kd (hPD-L1(ECD)-His [12]): 0.62 nM
- Kd (hPD-L1(ECD)-His [13]): 0.863 nM
B9: PD-L1-1.168.15-z11-uIgG1K (antibody)
chain 1: not shown
chain 2: DIQMTQSPSFLSASVGDRVTITCKASQNVHTSLAWYQQKPGKSPKALIYLASNRHTGVPSRFSGSGSGTEFTLTISSLQPEDFATYFCLQHWNYPLTFGQGTKLEIKRTVAAPSVFIFPPSDEQLKSGTASVVCLLNNFYPREAKVQWKVDNALQSGNSQESVTEQDSKDSTYSLSSTLTLSKADYEKHKVYACEVTHQGLSSPVTKSFNRGEC
